Patent publication US11661461B2, “Phospho-Rab antibodies, assays and methods of use thereof” (Denali Therapeutics Inc., priority 2017, dated 2023)
Each block holds one molecule with its values, some of them ahead of it.

Tests used:
LRRK2 = target: T1, LRRK2 (Rattus norvegicus, UniProt F1LNJ1); experiment: 10-day oral dosing study in rats, pT73-Rab10 and pS935-LRRK2 western blot; format: in vivo; details: for pT73-Rab10, Brain / pT73-Rab10, Lung / pS935-LRRK2, Brain / pS935-LRRK2, Lung: rats, daily oral 10 days, mean with SEM; for pT73-Rab10, Brain / pT73-Rab10, Lung: normalized to actin and vehicle control group; for pS935-LRRK2, Brain / pS935-LRRK2, Lung: normalized to vinculin and vehicle control group
T1 construct: from tissue; host or cells: rat brain and lung (in vivo dosing)
Experimental: Dose-dependent inhibition of pT73-Rab10 was tested in a 10-day oral dosing study in rats. Rats were dosed daily with the LRRK2 Inhibitor B at a dose of 10 mg/kg, 30 mg/kg, or 45 mg/kg. Tissues (brain and lung) were harvested, homogenized and analyzed by western blot. […] Signals from dosed groups were normalized to vehicle control group. Data were presented as mean with SEM.

[1] = target: T2, phosphorylated Rab10 in lysates of HEK cells overexpressing LRRK2 (Homo sapiens, UniProt P61026); experiment: Sandwich ELISA (diagnostic), HEK cells overexpressing LRRK2; format: binding; details: for Sandwich ELISA (diagnostic), Ratio: DMSO / LRRK2 inhibitor A RLU; for Sandwich ELISA (diagnostic) HEK cells overexpressing LRRK2, DMSO (RLU mean ± SD): DMSO treated cells; for Sandwich ELISA (diagnostic) HEK cells overexpressing LRRK2, LRRK2 inhibitor A (RLU mean ± SD): cells treated with LRRK2 inhibitor A
T2 construct: expressed in transfected cells; host or cells: HEK cells overexpressing LRRK2
T2 sequence (P61026 1-200): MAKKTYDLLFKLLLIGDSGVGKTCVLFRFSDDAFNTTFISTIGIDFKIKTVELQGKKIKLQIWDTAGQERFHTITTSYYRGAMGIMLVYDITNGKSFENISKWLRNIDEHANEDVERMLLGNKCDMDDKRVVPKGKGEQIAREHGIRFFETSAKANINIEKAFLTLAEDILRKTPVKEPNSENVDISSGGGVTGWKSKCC
Experimental: Sandwich ELISA (Diagnostic) with Anti-Phospho-Rab10 Antibody as the Capture Antibody:
ELISA plates were prepared by coating white Nunc MaxiSorp 384 well plates (Thermo Fisher #460372/Sigma #P6491) with capture antibody for 1 hour at room temperature on a shaking platform. The capture antibody was purified anti-phospho-Rab10 clone 19-4 diluted to 1 ug/mL in carbonate-bicarbonate buffer, and 15 uL/well of coating solution was added to the plate before incubation. Plates were then washed 3× with TBST on a BioTek plate washer. For all subsequent blocking/incubation steps, Pierce Starting Block T20 (TBS) was used (Thermo Fisher #37543). Plates were blocked […] in this solution using 80 uL/well and washed 3× as before. Afterwards samples of cell lysates were added (neat with no dilution) using 30 uL/well and incubated 1 hour at room temperature on a shaking platform. After another 3× wash detection antibody (Creative Diagnostics DCABH 13141, or Abcam, ab104859, 2 ug/mL) was added using 30 uL/well. After 60 minute incubation at room temperature and washing 3×, the secondary anti-species conjugate was added (anti-rabbit HRP antibody (Jackson ImmunoResearch 111-035-144) diluted 1:20000 in assay diluent) at 30 uL/well. After a 60 minute incubation, plates were washed 3× as before. The HRP substrate (Supersignal ELISA Femto HRP substrate—Thermo Fisher #37075) was prepared during this time by mixing both components and equilibrating to room temperature. 50 uL/well of substrate was added to plates, which then were covered and briefly incubated for 1-2 minutes on a shaker platform. Afterwards plates were read on the Synergy plate reader to measure relative light units (RLU).
Sandwich ELISA (Diagnostic) with Anti-Rab10 (Total) Antibody as the Capture Antibody:
ELISA plates were prepared by coating white Nunc MaxiSorp 384 well plates (Thermo Fisher #460372/Sigma # P6491) with capture antibody overnight at 4° C. on a shaking platform. The capture antibodies (anti-Rab10 antibody from either Creative Diagnostics, DCABH-13141, or Abcam, ab104859) were diluted to […] (or 1:100 if the concentration not known) in carbonate-bicarbonate buffer, and 15 uL/well of coating solution was added to the plate before incubation. After this plates were washed 3× with TBST on a BioTek plate washer. For all subsequent blocking/incubation steps, Pierce Starting Block (TBS) (no Tween added) was used (Thermo Fisher #37542). Plates were blocked for 1 hour at room temperature in this solution using 80 uL/well and washed 3× as before. Afterwards samples were added (with lysates being diluted 1:20 in the assay diluent) using 30 uL/well and incubated 2 hours at room temperature on a shaking platform. After another 3× wash detection antibodies were added (diluted to 1 ug/mL for purified antibodies or 1:2 for supernatants) using 30 uL/well. After 90 minute incubation at room temperature and washing 3× the secondary anti-species conjugate was added (anti-rabbit HRP antibody (Jackson ImmunoResearch 111-035-144) diluted 1:20000 in assay diluent) at 30 uL/well. After a 45 minute incubation plates were washed 3× as before. The HRP substrate (Supersignal ELISA Femto HRP substrate—Thermo Fisher #37075) was prepared during this time by mixing both components and equilibrating to room temperature. 50 uL/well of substrate was added to plates, which then were covered and briefly incubated for 1-2 minutes on a shaker platform. Afterwards plates were read on the Synergy plate reader to measure relative light units (RLU).

[2] = target: T3, endogenous phosphorylated Rab10 in human PBMC (Homo sapiens, UniProt P61026); experiment: Western blot of human PBMC with anti-pT73-Rab10 antibodies; format: binding; details: for detection of endogenous phosphorylated Rab10 signals in human PBMC by western blot: antibody at 1 ug/ml; for Western blot Human PBMC Ratio of DMSO/LRRK2 inhibitor A (mean ± SEM): band intensity normalized with Actin control for each of DMSO and LRRK2 inhibitor A, antibody 1 ug/ml
T3 construct: Strong endogenous phosphorylated Rab10 or phosphorylated Rab8a in human PBMC; host or cells: human PBMC
T3 sequence (P61026 1-200): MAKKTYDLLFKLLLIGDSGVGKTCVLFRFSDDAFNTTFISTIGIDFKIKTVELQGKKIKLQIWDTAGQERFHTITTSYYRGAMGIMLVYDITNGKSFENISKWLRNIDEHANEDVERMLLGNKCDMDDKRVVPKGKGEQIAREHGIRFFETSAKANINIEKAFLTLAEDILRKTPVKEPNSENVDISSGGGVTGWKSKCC

T1 sequence (F1LNJ1 1-2526): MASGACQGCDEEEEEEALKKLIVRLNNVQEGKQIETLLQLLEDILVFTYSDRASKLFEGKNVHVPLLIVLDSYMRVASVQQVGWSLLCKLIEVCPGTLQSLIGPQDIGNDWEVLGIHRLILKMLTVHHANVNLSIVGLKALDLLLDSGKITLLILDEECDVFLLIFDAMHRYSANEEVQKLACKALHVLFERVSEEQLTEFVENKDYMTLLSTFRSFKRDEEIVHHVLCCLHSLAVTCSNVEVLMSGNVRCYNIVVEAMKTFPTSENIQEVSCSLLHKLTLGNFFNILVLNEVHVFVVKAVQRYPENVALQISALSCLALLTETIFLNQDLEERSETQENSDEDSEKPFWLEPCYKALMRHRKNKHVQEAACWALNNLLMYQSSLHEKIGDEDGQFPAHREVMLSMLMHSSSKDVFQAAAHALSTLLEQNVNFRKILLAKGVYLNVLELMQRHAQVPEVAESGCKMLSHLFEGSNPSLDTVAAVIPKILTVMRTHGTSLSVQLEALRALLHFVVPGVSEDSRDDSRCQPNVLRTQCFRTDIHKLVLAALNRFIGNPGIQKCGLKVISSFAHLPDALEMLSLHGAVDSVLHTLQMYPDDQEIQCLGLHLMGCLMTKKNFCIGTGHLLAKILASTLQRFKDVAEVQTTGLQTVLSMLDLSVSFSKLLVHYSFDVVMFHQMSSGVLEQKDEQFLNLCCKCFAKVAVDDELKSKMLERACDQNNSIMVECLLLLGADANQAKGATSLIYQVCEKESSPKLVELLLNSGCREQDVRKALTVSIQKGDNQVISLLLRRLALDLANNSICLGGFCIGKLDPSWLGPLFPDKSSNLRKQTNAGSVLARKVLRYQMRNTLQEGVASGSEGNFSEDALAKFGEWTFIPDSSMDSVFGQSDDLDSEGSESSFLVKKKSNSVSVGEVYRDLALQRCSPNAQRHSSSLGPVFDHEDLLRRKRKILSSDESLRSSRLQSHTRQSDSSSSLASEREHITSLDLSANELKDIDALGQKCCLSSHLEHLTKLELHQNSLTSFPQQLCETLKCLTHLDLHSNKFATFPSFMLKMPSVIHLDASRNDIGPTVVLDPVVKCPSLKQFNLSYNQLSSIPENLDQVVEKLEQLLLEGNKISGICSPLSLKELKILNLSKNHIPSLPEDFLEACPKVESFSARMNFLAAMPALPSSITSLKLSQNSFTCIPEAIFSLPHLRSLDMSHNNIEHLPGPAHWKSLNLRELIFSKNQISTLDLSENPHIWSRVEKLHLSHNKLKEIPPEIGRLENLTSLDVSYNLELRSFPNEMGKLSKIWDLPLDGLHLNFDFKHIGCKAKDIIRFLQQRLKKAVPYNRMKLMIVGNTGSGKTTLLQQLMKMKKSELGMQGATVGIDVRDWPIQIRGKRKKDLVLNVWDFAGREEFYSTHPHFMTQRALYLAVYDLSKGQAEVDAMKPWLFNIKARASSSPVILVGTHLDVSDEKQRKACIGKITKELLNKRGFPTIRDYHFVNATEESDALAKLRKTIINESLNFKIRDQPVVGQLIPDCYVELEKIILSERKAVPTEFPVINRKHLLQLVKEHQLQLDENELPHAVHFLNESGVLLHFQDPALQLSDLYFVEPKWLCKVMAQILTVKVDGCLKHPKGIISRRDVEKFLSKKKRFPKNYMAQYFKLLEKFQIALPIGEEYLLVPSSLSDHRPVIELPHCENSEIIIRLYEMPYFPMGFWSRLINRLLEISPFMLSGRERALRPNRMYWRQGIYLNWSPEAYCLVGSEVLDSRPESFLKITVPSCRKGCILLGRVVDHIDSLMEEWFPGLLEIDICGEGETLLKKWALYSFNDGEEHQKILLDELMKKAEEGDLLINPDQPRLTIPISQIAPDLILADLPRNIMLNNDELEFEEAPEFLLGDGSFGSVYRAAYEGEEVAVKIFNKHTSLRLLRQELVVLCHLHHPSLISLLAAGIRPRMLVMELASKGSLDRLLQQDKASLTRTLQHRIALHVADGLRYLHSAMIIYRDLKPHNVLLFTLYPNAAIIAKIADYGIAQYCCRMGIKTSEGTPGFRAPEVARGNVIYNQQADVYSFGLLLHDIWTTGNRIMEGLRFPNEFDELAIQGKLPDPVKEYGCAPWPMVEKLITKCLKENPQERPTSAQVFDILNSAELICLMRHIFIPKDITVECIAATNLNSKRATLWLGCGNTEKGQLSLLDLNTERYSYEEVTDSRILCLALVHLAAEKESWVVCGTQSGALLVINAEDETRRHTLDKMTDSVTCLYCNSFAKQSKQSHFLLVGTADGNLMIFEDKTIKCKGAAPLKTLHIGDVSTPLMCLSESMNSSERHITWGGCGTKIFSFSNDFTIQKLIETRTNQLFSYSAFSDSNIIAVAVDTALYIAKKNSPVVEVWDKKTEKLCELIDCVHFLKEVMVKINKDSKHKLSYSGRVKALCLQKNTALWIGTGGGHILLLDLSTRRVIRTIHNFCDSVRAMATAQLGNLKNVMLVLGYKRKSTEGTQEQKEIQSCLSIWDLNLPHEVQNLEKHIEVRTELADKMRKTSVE

B1: Clone 133-2: anti-phosphorylated (pT73) Rab10 rabbit monoclonal antibody; VH SEQ ID NO:31, VL SEQ ID NO:35 (antibody, V domains shown)
VH: METGLRWLLLVAVLKGVQCQEQLVESGGGLVQPEGSLTLTCKASGFDLSSHYYMCWVRQAPGKGLEWIVCISNGSGNTYYASWAKGRFTISKTSSTTVTLHMTSLTVADTATYFCARNFGSNYGDAFDPWGPGTLVTVSS
VL: MDTRAPTQLLGLLLLWLPGATFAQVLTQTPSPVSAAVGGTVTISCQSSKSVYSNNYLSWYQQKPGQPPKLLIYSASILASGVPSRFSGSGSGTQFTLTISGVQCDDAATYYCQGSYAGSGWYIGFGGGTEVVVK
Sandwich ELISA (diagnostic), Ratio [1]: 2.25 | Sandwich ELISA (diagnostic) HEK cells overexpressing LRRK2, DMSO (RLU mean ± SD) [1]: 18605 ± 4874 RLU | Sandwich ELISA (diagnostic) HEK cells overexpressing LRRK2, LRRK2 inhibitor A (RLU mean ± SD) [1]: 8265 ± 1428 RLU

B2: Clone 153-2: anti-phosphorylated (pT73) Rab10 rabbit monoclonal antibody; VH SEQ ID NO:39, VL SEQ ID NO:43 (antibody, V domains shown)
VH: METGLRWLLLVAVLKGVQCQSVEESGGRLVTPGTPLTLTCTASGFSLSTYYMSWVRQAPGKGLEWIGIINTGGIVHYANWVRGRFTISKTSTTVDLRITSPTAEDTATYFCARAYSADRLDLWGQGTLVTVSS
VL: MDTRAPTQLLGLLLLWLPGATFAAVLTQTPSPVSAAVGGTVTISCQSSESVYGNNRLSWYQQKPGQPPKLLMYYASTLASGVPSRFRGSGSGTQFTLTISDVQCDDAASYYCLGGYKRDSNNAFGGGTEVVVK
Sandwich ELISA (diagnostic), Ratio [1]: 141.26 | Sandwich ELISA (diagnostic) HEK cells overexpressing LRRK2, DMSO (RLU mean ± SD) [1]: 596606 ± 80346 RLU | Sandwich ELISA (diagnostic) HEK cells overexpressing LRRK2, LRRK2 inhibitor A (RLU mean ± SD) [1]: 4223 ± 293 RLU

B3: Clone 5: anti-phosphorylated (pT73) Rab10 rabbit monoclonal antibody; VH SEQ ID NO:1, VL SEQ ID NO:5 (antibody, V domains shown)
VH: METGLRWLLLVAVLKGVQCQSVEESGGRLVTPGTPLTLTCTVSGFSLSSYAMVWVRQAPGKGLEYIGLISRSGVTYYATWAKGRFTISKASTTVDLKIASPTTGDTATYFCVRDYDINGWSGFTIWGPGTLVTVSA
VL: MDTRAPTQLLGLLLWLPGAICDPVMTQTPSSTSAAVGGTVTINCQSSQSVYGNNYFSWYQQKPGQPPKLLIYKASTLASGVPSRFKGSGSGTQFTLTISDLECDDAATYYCAGAASDTRFFGGGTELVVN
detection of endogenous phosphorylated Rab10 signals in human PBMC by western blot [2]: detected endogenous phosphorylated Rab signals | Western blot Human PBMC Ratio of DMSO/LRRK2 inhibitor A (mean ± SEM) [2]: 3.45 ± 0.53 | Sandwich ELISA (diagnostic), Ratio [1]: 23.63 | Sandwich ELISA (diagnostic) HEK cells overexpressing LRRK2, DMSO (RLU mean ± SD) [1]: 85175 ± 16412 RLU | Sandwich ELISA (diagnostic) HEK cells overexpressing LRRK2, LRRK2 inhibitor A (RLU mean ± SD) [1]: 3604 ± 1165 RLU

B6: Clone 19: anti-phosphorylated (pT73) Rab10 rabbit monoclonal antibody; VH SEQ ID NO:11, VL SEQ ID NO:13 (antibody, V domains shown)
VH: METGLRWLLLVAVLKGVQCQSVEESGGRLVTPGTPLTLTCTVSGFSLSSYAMVWVRQAPGKGLEYIGLISRSGVTYYATWAKGRFTISKASTTVDLKIASPTTGDTATYFCVRDYDSAGWSGFTIWGPGTLVTVSA
VL: MDTRAPTQLLGLLLLWLPGAICDPVMTQTPSSTSAAVGGTVTINCQSSQSVYGNNYLSWYQQKPGQPPKLLIYKASTLASGVPSRSVGSGSGTQFTLTISDLECDDAATYYCAGAASDTRFFGGGTELVVN
detection of endogenous phosphorylated Rab10 signals in human PBMC by western blot [2]: detected endogenous phosphorylated Rab signals | Western blot Human PBMC Ratio of DMSO/LRRK2 inhibitor A (mean ± SEM) [2]: 3.39 ± 0.89

More lines, main results first:

pT73-Rab10, Brain (LRRK2; High dose (doses 10, 30, 45 mg/kg), N = 5): 0.225 ± 0.0394 | pT73-Rab10, Lung (LRRK2; High dose): 0.109 ± 0.0126 | pS935-LRRK2, Brain (LRRK2; High dose): 0.04 ± 0.016 | pS935-LRRK2, Lung (LRRK2; High dose): 0.076 ± 0.022 | pT73-Rab10, Brain (LRRK2; Low dose (doses 10, 30, 45 mg/kg), N = 6): 0.676 ± 0.102 | pT73-Rab10, Lung (LRRK2; Low dose): 0.25 ± 0.0126 | pS935-LRRK2, Brain (LRRK2; Low dose): 0.693 ± 0.164 | pS935-LRRK2, Lung (LRRK2; Low dose): 0.295 ± 0.026 | pT73-Rab10, Brain (LRRK2; Medium dose (doses 10, 30, 45 mg/kg), N = 6): 0.268 ± 0.0745 | pT73-Rab10, Lung (LRRK2; Medium dose): 0.133 ± 0.0137 | pS935-LRRK2, Brain (LRRK2; Medium dose): 0.086 ± 0.021 | pS935-LRRK2, Lung (LRRK2; Medium dose): 0.094 ± 0.012
Molecule: CNc1nc(Nc2cn(C(C)(C)C#N)nc2C)ncc1C(F)(F)F [LRRK2 Inhibitor B, 2-methyl-2-(3-methyl-4-(4-(methylamino)-5-(trifluoromethyl)pyrimidin-2-ylamino)-1H-pyrazol-1-yl)propanenitrile]
dephosphorylation of pS935-LRRK2 and pT73-Rab10 (LRRK2; rats, 10, 30 or 45 mg/kg daily oral, 10 days, brain and lung): comparable dose-dependent dephosphorylation

Sandwich ELISA (diagnostic), Ratio [1]: 7.20 | Sandwich ELISA (diagnostic) HEK cells overexpressing LRRK2, DMSO (RLU mean ± SD) [1]: 13096 ± 1715 RLU | Sandwich ELISA (diagnostic) HEK cells overexpressing LRRK2, LRRK2 inhibitor A (RLU mean ± SD) [1]: 1820 ± 276 RLU
B4: Clone 247-8: anti-phosphorylated (pT73) Rab10 rabbit monoclonal antibody; VH SEQ ID NO:47, VL SEQ ID NO:51 (antibody, V domains shown)
VH: METGLRWLLLVAVLKGVQCQSVEESGGRLVTPGTPLTLTCTVSGFSLSSYAMGWVRQAPGKGLEYIGIISRSGITYYATWAKGRFTISKASTTVDLRIASPTTEDTATFFCVRDYDSSGWSGFNIWGPGTLVTVSL
VL: MDTRAPTQLLGLLLLWLPGAICDPVMTQTPSSTSAAVGGTVTINCQSSQSVYGNNYLSWFQQKPGQPPKLLIYKASTLASGVPSRFKGSGSGTQFTLTISGVQCDDAATYYCAGAYSDNRVFGGGTEVVVK

Sandwich ELISA (diagnostic), Ratio [1]: 77.37 | Sandwich ELISA (diagnostic) HEK cells overexpressing LRRK2, DMSO (RLU mean ± SD) [1]: 212085 ± 27432 RLU | Sandwich ELISA (diagnostic) HEK cells overexpressing LRRK2, LRRK2 inhibitor A (RLU mean ± SD) [1]: 2741 ± 309 RLU
B5: Clone 256-6: anti-phosphorylated (pT73) Rab10 rabbit monoclonal antibody; VH SEQ ID NO:53, VL SEQ ID NO:56 (antibody, V domains shown)
VH: METGLRWLLLVAVLKGVQCQSVEESGGRLVTPGTPLTLTCTVSGFSLSNYAMVWVRQAPGKGLEYIGLISRSGVTYYATWAKGRFTISKASTTVDLKIASPTTGDTATYFCVRDYDANGWSGFTIWGPGTLVTVSA
VL: MDTRAPTQLLGLLLLWLPGAICDPVMTQTPSSTSAAVGGTVTINCQSSQSVYGNNYLSWYQQKPGQPPKLLIYKASTLASGVPSRFKGSGSGTQFTLTISDLDCDDAATYYCAGAASDTRFFGGGTEVVVK
